Laboratory results taken from patent US20240294569A1, “MODULATORS OF SORTILIN ACTIVITY” (Insusense ApS, priority 2021, published 2024).
Peptide text beside a SMILES is read from it.

target: T1, hSortilin (Homo sapiens, UniProt Q99523); assay: Neurotensin scintillation proximity assay (displacement of [3H]-neurotensin binding); settings: displacement of 5 nM [3H]-neurotensin from 150 nM 6his-Sortilin; average of at least 2 determinations; read-out: IC50 [3H]Neurotensin SPA
T1 sequence (Q99523 78-831): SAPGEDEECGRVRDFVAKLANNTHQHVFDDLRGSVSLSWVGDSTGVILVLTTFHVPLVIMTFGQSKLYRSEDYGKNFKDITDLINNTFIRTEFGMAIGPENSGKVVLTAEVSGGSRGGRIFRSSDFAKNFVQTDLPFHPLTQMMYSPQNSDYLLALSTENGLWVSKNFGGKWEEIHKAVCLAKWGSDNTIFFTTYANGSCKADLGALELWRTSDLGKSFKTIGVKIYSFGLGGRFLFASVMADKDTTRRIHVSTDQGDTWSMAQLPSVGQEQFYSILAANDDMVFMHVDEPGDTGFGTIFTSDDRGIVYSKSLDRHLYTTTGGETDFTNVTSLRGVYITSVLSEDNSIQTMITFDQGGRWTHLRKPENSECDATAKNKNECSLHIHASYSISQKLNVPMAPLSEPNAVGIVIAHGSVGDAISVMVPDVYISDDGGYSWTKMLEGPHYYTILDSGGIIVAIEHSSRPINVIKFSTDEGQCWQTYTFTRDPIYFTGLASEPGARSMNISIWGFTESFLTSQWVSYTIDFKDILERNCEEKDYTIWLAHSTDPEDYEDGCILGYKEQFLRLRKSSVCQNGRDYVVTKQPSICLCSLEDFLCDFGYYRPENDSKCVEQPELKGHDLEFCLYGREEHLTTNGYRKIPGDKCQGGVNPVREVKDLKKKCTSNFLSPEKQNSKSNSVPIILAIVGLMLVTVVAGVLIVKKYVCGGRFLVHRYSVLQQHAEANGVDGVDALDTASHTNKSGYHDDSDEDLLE
Experimental: The data of exemplified compounds of the invention tested in a Neurotensin (NTS) scintillation proximity assay (SPA). NTS, which is a 13 amino acid neuropeptide, is a sortilin ligand. The IC50 is a measure of the amount of the compound required to inhibit the binding of NTS to sortilin by 50%.
Compound affinity was determined by measuring the displacement of [^3H]-neurotensin binding to hSortilin in SPA format. Total volume of 40 μl in 50 mM HEPES pH 7.4 assay buffer containing 100 mM NaCl, 2.0 mM CaCl2, 0.1% BSA and 0.1% Tween-20. Compound pre-incubation for 30 minutes at room temperature with 150 nM of 6his-Sortilin before 5 nM [3H]-Neurotensin and Ni chelate imaging beads (Perkin Elmer) were added, after 6 hours the plate was read on a ViewLux with 360 s exposure time. Dose-response evaluation of compounds was performed with 8 concentrations of drugs (covering 3 decades). IC50 values were calculated by nonlinear regression using the sigmoid concentration-response (variable slope) using CDD Vault software. All values reported are average of at least 2 determinations.

IC50	Compound
100 nM	CC[C@H](C)[C@H](NC(=O)[C@H](Cc1ccc(O)cc1)NC(=O)[C@@H]1CNCCN1)C(=O)N[C@@H](CCC(C)(C)C)C(=O)O [Example 19, (S)-2-((2S,3S)-2-((S)-3-(4-Hydroxyphenyl)-2-((S)-piperazine-2-carboxamido)propan amido)-3-methylpentanamido)-5,5-dimethylhexanoic acid] (HELM PEPTIDE1{[O=C([C@@H]1CNCCN1)[*:2]].Y.I.[CC(C)(C)CC[C@H](N[*:1])C(=O)O]}$$$$V2.0)
150 nM	CC[C@H](C)[C@H](NC(=O)[C@H](Cc1ccc(O)cc1)NC(=O)[C@H]1CCNC1)C(=O)N[C@@H](CCC(C)(C)C)C(=O)O [Example 20, (S)-2-((2S,3S)-2-((S)-3-(4-Hydroxyphenyl)-2-((S)-pyrrolidine-3-carboxamido)propan amido)-3-methylpentanamido)-5,5-dimethylhexanoic acid]
180 nM	CC[C@H](C)[C@H](NC(=O)[C@H](Cc1ccc(O)cc1)NC(=O)[C@@H]1CCNC1)C(=O)N[C@@H](CCC(C)(C)C)C(=O)O [Example 21, (S)-2-((2S,3S)-2-((S)-3-(4-Hydroxyphenyl)-2-((R)-pyrrolidine-3-carboxamido)propan amido)-3-methylpentanamido)-5,5-dimethylhexanoic acid]
70 nM	CC[C@H](C)[C@H](NC(=O)[C@H](Cc1ccc(O)cc1)NC(=O)[C@@H]1CNCCO1)C(=O)N[C@@H](CCC(C)(C)C)C(=O)O [Example 22, (S)-2-((2S,3S)-2-((S)-3-(4-Hydroxyphenyl)-2-((S)-morpholine-2-carboxamido)propan amido)-3-methylpentanamido)-5,5-dimethylhexanoic acid]
100 nM	CC[C@H](C)[C@H](NC(=O)[C@H](Cc1ccc(O)cc1)NC(=O)[C@H]1COCCN1)C(=O)N[C@@H](CCC(C)(C)C)C(=O)O [Example 23, (S)-2-((2S,3S)-2-((S)-3-(4-Hydroxyphenyl)-2-((R)-morpholine-3-carboxamido)propan amido)-3-methylpentanamido)-5,5-dimethylhexanoic acid]
140 nM	CC[C@H](C)[C@H](NC(=O)[C@H](Cc1ccc(O)cc1)NC(=O)[C@H]1CN(C(C)=O)CCO1)C(=O)N[C@@H](CCC(C)(C)C)C(=O)O [Example 25, (S)-2-((2S,3S)-2-((S)-2-((R)-4-Acetylmorpholine-2-carboxamido)-3-(4-hydroxyphenyl)propanamido)-3-methylpentanamido)-5,5-dimethylhexanoic acid]
190 nM	CC[C@H](C)[C@H](NC(=O)[C@H](Cc1ccc(O)cc1)NC(C)=O)C(=O)N[C@@H](CCC(C)(C)C)C(=O)O [Example 28, (S)-2-((2S,3S)-2-((S)-2-Acetamido-3-(4-hydroxyphenyl)propanamido)-3-methylpentanamido)-5,5-dimethylhexanoic acid]
90 nM	CC[C@H](C)[C@H](NC(=O)[C@H](Cc1ccc(O)cc1)NC(=O)[C@H]1CNCCO1)C(=O)N[C@@H](CCC(C)(C)C)C(=O)O [Example 30, (S)-2-((2S,3S)-2-((S)-3-(4-Hydroxyphenyl)-2-((R)-morpholine-2-carboxamido)propan amido)-3-methylpentanamido)-5,5-dimethylhexanoic acid]
100 nM	Cn1cncc1C[C@H](NC(=O)[C@H](Cc1ccc(O)cc1)NC(=O)[C@@H]1CCCN1)C(=O)N[C@@H](CCC(C)(C)C)C(=O)O [Example 32, (S)-2-((S)-2-((S)-3-(4-Hydroxyphenyl)-2-((S)-pyrrolidine-2-carboxamido)propan amido)-3-(1-methyl-1H-imidazol-5-yl)propanamido)-5,5-dimethylhexanoic acid.di-formic acid] (HELM PEPTIDE1{P.Y.[Cn1cncc1C[C@H](N[*:1])C(=O)[*:2]].[CC(C)(C)CC[C@H](N[*:1])C(=O)O]}$$$$V2.0)

target: 6his-Sortilin (human) (UniProt Q99523); assay: SPA, displacement of [3H]-neurotensin from 6his-Sortilin; settings: not given

IC50	Compound
70 nM	(2S)-5,5-Dimethyl-2-((3S)-3-methyl-2-((S)-2-((S)-pyrrolidine-2-carboxamido)propanamido)pentanamido)hexanoic acid (peptide)
90 nM	(S)-2-((2S,3S)-2-((S)-3-(4-Hydroxyphenyl)-2-((R)-morpholine-2-carboxamido)propanamido)-3-methylpentanamido)-5,5-dimethylhexanoic acid (peptide)
100 nM	(S)-2-((2S,3S)-2-((S)-3-(4-Hydroxyphenyl)-2-((R)-morpholine-3-carboxamido)propanamido)-3-methylpentanamido)-5,5-dimethylhexanoic acid (peptide)
110 nM	(S)-2-((2S,3S)-2-((S)-3-(4-Hydroxyphenyl)-2-((R)-piperazine-2-carboxamido)propanamido)-3-methylpentanamido)-5,5-dimethylhexanoic acid (peptide)
180 nM	(S)-2-((2S,3S)-2-((S)-3-(4-Hydroxyphenyl)-2-((R)-pyrrolidine-3-carboxamido)propanamido)-3-methylpentanamido)-5,5-dimethylhexanoic acid (peptide)
70 nM	(S)-2-((2S,3S)-2-((S)-3-(4-Hydroxyphenyl)-2-((S)-morpholine-2-carboxamido)propanamido)-3-methylpentanamido)-5,5-dimethylhexanoic acid (peptide)
100 nM	(S)-2-((2S,3S)-2-((S)-3-(4-Hydroxyphenyl)-2-((S)-piperazine-2-carboxamido)propanamido)-3-methylpentanamido)-5,5-dimethylhexanoic acid (peptide)
90 nM	(S)-2-((2S,3S)-2-((S)-3-(4-Hydroxyphenyl)-2-((S)-pyrrolidine-2-carboxamido)propanamido)-3-methylpentanamido)-5,5-dimethylhexanoic acid (peptide)
150 nM	(S)-2-((2S,3S)-2-((S)-3-(4-Hydroxyphenyl)-2-((S)-pyrrolidine-3-carboxamido)propanamido)-3-methylpentanamido)-5,5-dimethylhexanoic acid (peptide)
370 nM	(S)-2-((S)-2-((S)-3-(4-Hydroxyphenyl)-2-((S)-pyrrolidine-2-carboxamido)propanamido)-3-(1-methyl-1H-imidazol-4-yl)propanamido)-5,5-dimethylhexanoic acid (peptide)
100 nM	(S)-2-((S)-2-((S)-3-(4-Hydroxyphenyl)-2-((S)-pyrrolidine-2-carboxamido)propanamido)-3-(1-methyl-1H-imidazol-5-yl)propanamido)-5,5-dimethylhexanoic acid.di-formic acid (peptide)
60 nM	(S)-2-((S)-2-((S)-3-(4-Hydroxyphenyl)-2-((S)-pyrrolidine-2-carboxamido)propanamido)-3-(1H-indol-3-yl)propanamido)-5,5-dimethylhexanoic acid (peptide)
90 nM	(S)-2-((S)-2-((S)-3-(4-Hydroxyphenyl)-2-((S)-pyrrolidine-2-carboxamido)propanamido)-3-(pyridin-3-yl)propanamido)-5,5-dimethylhexanoic acid (peptide)
200 nM	(S)-2-((S)-2-((S)-3-(4-Hydroxyphenyl)-2-((S)-pyrrolidine-2-carboxamido)propanamido)-3-(pyridin-4-yl)propanamido)-5,5-dimethylhexanoic acid (peptide)
70 nM	(S)-2-((S)-2-((S)-3-(4-Hydroxyphenyl)-2-((S)-pyrrolidine-2-carboxamido)propanamido)-3-(thiazol-4-yl)propanamido)-5,5-dimethylhexanoic acid (peptide)
140 nM	(S)-2-((S)-2-((S)-3-(4-Hydroxyphenyl)-2-((S)-pyrrolidine-2-carboxamido)propanamido)-3-(thiophen-3-yl)propanamido)-5,5-dimethylhexanoic acid (peptide)
160 nM	(S)-2-((S)-2-((S)-3-(4-Hydroxyphenyl)-2-((S)-pyrrolidine-2-carboxamido)propanamido)-3-morpholinopropanamido)-5,5-dimethylhexanoic acid (peptide)
90 nM	(S)-2-((S)-2-((S)-4-Amino-4-oxo-2-((S)-pyrrolidine-2-carboxamido)butanamido)-3-(thiazol-4-yl)propanamido)-5,5-dimethylhexanoic acid (peptide)
